Data taken from patent publication US20250333541A1, “ANTIBODY, AND DRUG CONJUGATE AND USE THEREOF” (EVOPOINT BIOSCIENCES CO., LTD., priority 2022, published 2025).
Numbering of substitutions follows the chain as printed.

B1: 22F11H5-hz1 (antibody, human IgG1, kappa, V domains shown)
VH: QVQLVQSGAEVKQPGASVKVSCKASGYTFTTYWMHWVRQAPGQGLEWMGMIDPSDSYTTYAQKFQGRVTLTVDTSTSTAYMELSSLRSEDTAVYYCARGSGPGLFAYWGQGTLVTVSS
VL: DIQETQSPSSLSASVGDRVTITCRASQDIRNYLNWYQQKPGKAPKLLIYHTSRLQSGVPSRFSGSGSGTDYTLTISSLQPEDFATYYCQQGNMPPYTFGQGTKVEIKR
notes: Humanized IgG1 kappa
B2: 27H8H3-hz1 (antibody, human IgG1, kappa, V domains shown)
VH: B1 VH with Q13K, T59S, A97T
VL: B1 VL with D28G, R30S, Q55H, G66V, Y71F, Y87F, M93T, P94L
notes: Humanized IgG1 kappa

Assays:
[1] = molecular target: T1, tissue factor (TF) on the surface of TF-positive tumor cells (human, UniProt P13726 33-295); test: cell-based or functional assay
[2] = molecular target: T1, tissue factor (TF) on the surface of …; test: cell-based or functional assay; remark: listed apart in the source
human TF-His [3] = molecular target: T2, human TF-His (human, UniProt P13726 33-251); test: ELISA, plate coated with h.TF-His
T2 construct: range 33-251; Recombinant extracellular segment expressed in HEK293-EBNA cells and purified on a nickel column; also called h.TF-His; h; TF-his; not shown: His tag from vector pTT5-His
Protocol: (§1) The ELISA plate was coated overnight with TF antigen (h.TF-His or c.TF-His antigen) in 50 mM carbonate coating buffer (CBS coating solution) at a coating concentration of 1 μg/mL in a volume of 100 μL at 4° C. The next day, the coating solution was removed, each well was washed once with 300 μL of PBS, and 100 μL of 2% BSA (Biotopped, A6020) in PBS was added to each well for blocking at 37° C. for 2 h. The test sample was subjected to a gradient dilution with 2% BSA in PBS to establish 11 concentration points. 100 μL of each of the samples obtained by the gradient dilution was added to the plate, and the plate was incubated at 37° C. for 2 h. The supernatant was removed, and each well was washed three times with 300 μL of PBST. 100 μL of HRP-conjugated secondary antibody in 2% BSA was added to each well, and the plate was incubated at 37° C. for 1 h. […] At the end of the incubation, the secondary antibody was removed, each well was washed five times with 300 μL of PBST, and 100 μL of TMB substrate (Huzhou InnoReagents Co., Ltd., TMB-S-004) was added to each well for color development for 5-20 min. 50 μL of 2 N HCl was added to each well to stop the reaction, and OD450 nm values were read using a microplate reader (manufacturer: MD, model: SpectraMax) and imported into GraphPad software for fitting and plotting to determine the binding of the samples to TF antigenic proteins.
The assay was performed as described in the general methods. Briefly, an ELISA plate coated with a human TF-his protein or a cynomolgus monkey TF-his protein was blocked with 2% BSA at 37° C. for 2 h, and each of the antibodies obtained by the gradient dilution (starting at 10 μg/mL, 3-fold graded dilution, 11 concentration points) was added. The plate was incubated at 37° C. for 2 h.

[4] = molecular target: T1, tissue factor (TF) on the surface of …; test: cell ELISA on fixed NCI-H358 cells
Protocol: TF antigen-positive cells (MDA-MB-231 or NCI-H358 cells) were seeded into a 96-well plate at 5×10⁴ cells/well one day prior to the experiment. On the day of the experiment, the culture supernatant was removed, each well was washed once with 300 μL of PBS, and 100 μL of 4% paraformaldehyde was added to each well for immobilization at room temperature for 20 min. The paraformaldehyde was removed, and each well was washed twice with 300 μL of PBS, and 100 μL of 2% BSA in PBS was added to each well for blocking at 37° C. for 2 h. After the blocking was completed, 30 μL of the test sample (hybridoma supernatant or purified antibody) was added to each well and the plate was incubated at 37° C. for 2 h. The liquid was removed, and each well was washed three times with 300 μL of PBST. 100 μL of HRP-conjugated secondary antibody in 2% BSA was added to each well, and the plate was incubated at 37° C. for 1 h. […] The secondary antibody was removed, each well was washed five times with 300 μL of PBST, and 100 μL of TMB substrate (Huzhou InnoReagents Co., Ltd., TMB-S-004) was added to each well for color development for 5-20 min. 50 μL of 2 N HCl was added to each well to stop the reaction, and OD450 nm values were read using a microplate reader (manufacturer: MD, model: SpectraMax) to determine the binding of the samples to TF-positive cells.
The assay was performed as described in the general methods. Briefly, TF antigen-positive NCI-H358 cells were digested with trypsin, collected, seeded into a 96-well plate at 5×10⁴ cells/well and incubated overnight, and then immobilized with 4% paraformaldehyde. After the paraformaldehyde was removed and the cells were washed with PBS, the plate was blocked with 2% BSA at 37° C. for 2 h. Each of the antibodies obtained by the gradient dilution (starting at 10 μg/mL, 3-fold graded dilution, 11 concentration points) was added. The plate was incubated at 37° C. for 2 h.

human TF-His [5] = molecular target: T2, human TF-His; test: antigenic protein-based ELISA on TF antigen (coating antigen not named, taken as human TF-His), antibody diluted in human serum, 0 days at 37 C
Protocol: as §1, with “proteins. […]” for “proteins.”

[6] = molecular target: T1, tissue factor (TF) on the surface of …; test: flow cytometry on KYSE520 cells
Protocol: A TF low/medium-expressing cell line NCI-H358 (source: Nanjing Cobioer, CBP60136) and a TF high-expressing cell line KYSE520 (source: Nanjing Cobioer, CBP60658) were digested with trypsin, collected by centrifugation, and washed three times with pre-cooled PBS. The cells were resuspended in 1% BSA and seeded into a 96-well sharp-bottom plate at 3×10⁵ cells/well. Each of the antibodies obtained by the gradient dilution was added, and the plate was incubated at 4° C. for 1 h. The cells were washed three times with pre-cooled PBS. 1 μL of anti-human fluorescent secondary antibody (APC anti-human IgG Fc Antibody, Biolegend, 410712) was added to each well, and the plate was incubated at 4° C. for 0.5 h. The cells were washed three times with pre-cooled PBS, resuspended, and detected by a flow cytometer (Sony, LE-SA3800GA). The data were imported into GraphPad software for curve fitting.

human TF-His [7] = molecular target: T2, human TF-His; test: BLI (ForteBio Octet), antibody on ProA sensor, TF-His as analyte
Protocol: The dynamic affinity of the humanized antibodies was determined by ForteBio. The experimental procedures were as follows: a ProA sensor (18-5010, Octet) was taken out and pre-wetted with a PBST diluent (pH 7.4) for 10 min. The antibodies to be immobilized were diluted to 5 μg/mL. […] The program was set up, the sensor plate and sample plate were put in, then the program started. The sensor was regenerated with 20 mM glycine solution (pH 1.7). The data were analyzed using Octet analysis software to derive a result graph.

Row | Binder | IC50 (ng/mL), inhibition of FVIIa-induced IL-8 release by MDA-MB-231 cells [1] [ng/mL] | Maximum inhibition rate (%), FVIIa-induced IL-8 release by MDA-MB-231 cells [1] [%] | Endocytosis rate (%) on NCI-H358 cells, 2 h [2] [%] | Endocytosis rate (%) on NCI-H358 cells, 4 h [2] [%] | EC50 (human TF-His [3]) [µg/mL] | EC50 [4] [µg/mL] | EC50 (read off the curve) (human TF-His [5]) [µg/mL] | EC50 [6] [µg/mL] | Kd (human TF-His [7]) [nM] | koff (human TF-His [7]) [s⁻¹] | kon (human TF-His [7]) [M⁻¹ s⁻¹]
1 | B1 | 180 | 94.3 | 34.3 | 56.1 | 0.00858 | 0.012 | ~0.03 | 0.0357 | 9.8 | 0.00296 | 302000
2 | B2 | 463 | 100 | 49.2 | 73.4 | 0.00815 | 0.0348 | ~0.05 | 0.0594 | 42.5 | 0.0116 | 273000
